Laboratory results from publication PMC3515676.

Tests used:
Assay in all cases: purified protein
Assay type in all cases: biochemical, Danio rerio
[1] = system: C[C@H](CCC(=O)NCC(=O)O)[C@H]1CC[C@H]2[C@@H]3[C@H](O)C[C@@H]4C[C@H](O)CC[C@]4(C)[C@H]3CC[C@]12C; details: 14 μM PAP[35S], 50 mM Taps pH 8.5, 28 °C, pH 8.5
[2] = system: C[C@H](CCC(=O)O)[C@H]1CC[C@H]2[C@@H]3[C@H](O)C[C@@H]4C[C@H](O)CC[C@]4(C)[C@H]3CC[C@]12C; details: 14 μM PAP[35S], 50 mM Taps pH 8.5, 28 °C, pH 8.5
[3] = system: C[C@H](CCC(=O)O)[C@H]1CC[C@H]2[C@@H]3CC[C@@H]4C[C@H](O)CC[C@]4(C)[C@H]3CC[C@]12C; details: 14 μM PAP[35S], 50 mM Taps pH 8.5, 28 °C, pH 8.5
[4] = system: C[C@H](CCCO)[C@H]1CC[C@H]2[C@@H]3[C@H](O)C[C@H]4C[C@H](O)CC[C@]4(C)[C@H]3C[C@H](O)[C@]12C; details: 14 μM PAP[35S], 50 mM Mes pH 6.0, 28 °C, pH 6.0

“Zebra danio SULT3 ST2 (ZF SULT3 ST2) (Danio rerio)” gave a Km [1] of 19.89 ± 1.32 µM, a Vmax [1] of 0.00097 µmol/min/mg and a Km [2] of 21.75 ± 2.74 µM. For the same substance, the Vmax [2] was 0.00075 µmol/min/mg, the Km [3] was 6.00 ± 0.55 µM and the Vmax [3] was 0.00051 µmol/min/mg. The Km [4] was 22.36 ± 1.47 µM and the Vmax [4] was 0.00254 µmol/min/mg.
